Measurements published in PMC9496473, “Generation and Validation of an Anti-Human PANK3 Mouse Monoclonal Antibody” (Biomolecules, 2022).

Biological target: the molecule itself
Assay: SEC; Ni-NTA eluate of His-PANK3 further subjected to size-exclusion gel chromatography; all purification steps at 4 °C

B1: His-tagged recombinant human PANK3 protein (residues Pro12 to Asn368) (enzyme, UniProt Q9H999 12-368, looked up)
chain: PWFGMDIGGTLVKLSYFEPIDITAEEEQEEVESLKSIRKYLTSNVAYGSTGIRDVHLELKDLTLFGRRGNLHFIRFPTQDLPTFIQMGRDKNFSTLQTVLCATGGGAYKFEKDFRTIGNLHLHKLDELDCLVKGLLYIDSVSFNGQAECYYFANASEPERCQKMPFNLDDPYPLLVVNIGSGVSILAVHSKDNYKRVTGTSLGGGTFLGLCSLLTGCESFEEALEMASKGDSTQADKLVRDIYGGDYERFGLPGWAVASSFGNMIYKEKRESVSKEDLARATLVTITNNIGSVARMCAVNEKINRVVFVGNFLRVNTLSMKLLAYALDYWSKGQLKALFLEHEGYFGAVGALLGLPN
notes: Pantothenate kinase 3 (PANK3), human, residues Pro12 to Asn368, from a pET28a plasmid bought from Addgene (25518); also called His-PANK3; recombinant PANK3; source: E. coli BL21 (DE3) and E. coli Rosetta2 (DE3), purified (Ni-NTA, size-exclusion chromatography); not shown: His6, N-terminal, kept
In the case of B1, the “stoichiometry N” value is reported as 2.
